T1: MAP tag peptide (14-residue) (Mus musculus)
T1 construct: 14-residue MAP tag derived from mouse podoplanin; also called MAP14 peptide; MAP peptide; source: synthetic peptide; also conjugated to Sepharose
T1 chain: GDGMVPPGIEDKIT

T2: Fn10-nMAP14 (Mus musculus (MAP tag), chimera)
T2 construct: original 14-residue MAP tag derived from mouse podoplanin, at the N-terminus; tenth fibronectin type III domain (Fn10) of human fibronectin, residues 1417-1509; disulphide-linked dimer via the Fc; also called N-terminally MAP-tagged Fn10-Fc; source: Expi293F, transiently transfected, culture supernatant
T2 chain: GDGMVPPGIEDKIT

T3: Fn10-nMAP8 (Mus musculus (MAP tag), chimera)
T3 construct: MAP8 tag, the N-terminal 8 residues of the MAP tag derived from mouse podoplanin, at the N-terminus; tenth fibronectin type III domain (Fn10) of human fibronectin, residues 1417-1509; disulphide-linked dimer via the Fc; also called N-terminally MAP-tagged Fn10-Fc; source: Expi293F, transiently transfected, culture supernatant
T3 chain: GDGMVPPG

T4: Fn10-iFG-G (mouse podoplanin MAP8 tag (carried in …, chimera))
T4 construct: Fn10 of human fibronectin up to Gly1494 of the FG loop; extra Gly residue(s) before the tag; MAP8 tag, derived from mouse podoplanin; extra Gly residue(s) after the tag; Fn10 of human fibronectin from Ser1496; As Fn10-iFG with the inserted MAP8 flanked by extra Gly residues at both ends; source: Expi293F, transiently transfected, culture supernatant
T4 chain: GDGMVPPG


How the values were obtained:
[1] = molecular target: T1, MAP tag peptide (14-residue); experiment: pull-down; purified Fv-clasp samples mixed with MAP14 peptide-conjugated Sepharose, 1 h at room temperature; washed three times with TBS (20 mM Tris pH 7.5, 150 mM NaCl); 15% SDS-PAGE, Coomassie; conditions: both partners purified
Fn10-nMAP14 = molecular target: T2, Fn10-nMAP14; experiment: pull-down; PMab-1 immobilised on Sepharose; culture supernatants of transfected Expi293F cells; washed three times with TBS; 12.5% non-reducing SDS-PAGE, Coomassie; conditions: one partner purified
Fn10-nMAP8 = molecular target: T3, Fn10-nMAP8; experiment: as above; conditions: one partner purified
Fn10-iFG-G = molecular target: T4, Fn10-iFG-G; experiment: as above; conditions: one partner purified

Binder	binding result [1]	binding result (Fn10-nMAP14)	binding result (Fn10-nMAP8)	binding result (Fn10-iFG-G)
PMab-1(QQ) Fv-clasp (other, rat | human, VH domain of rat anti-MAP monoclonal antibody PMab-1; SARAH domain of human Mst1 (anti-parallel coiled coil of the Fv-clasp format); VL domain (kappa) of rat anti-MAP monoclonal antibody PMab-1; SARAH domain of human Mst1 with S37C; Fv-clasp(v2) format, non-tagged version; also called PMab-1(QQ) Fv-clasp mutant; PMab-1VH(S112C)-SARAH with N43Q and N54Q + PMab-1VL-SARAH(S37C)) VH: QIQLQQSGTVLVKPASSVKISCKASGYSFTSHYMHWIRQQPGQGLEWIGWISPEQGNTKYNQKFDGKATLTADKSSSIAYMQLSSLTSEDSAVYFCVSWEDWSAYWGQGTLVTVCS VL: DIVLTQSPALTVSLGQRATISCKTNQNVDYYGNSYVHWYQQKPGQKPKLLIYLASNLASGIPARFSGRGSGTDFTLTIDPVEAADTATYYCQQSRDLPNTFGAGTKLELK	binds	–	–	–
PMab-1 Fv-clasp (other, rat | human, VH domain of PMab-1 with S112C; as the VH of m1 (PDB 6lz4, VH-SARAH chain) but with Asn at 43 and 54 instead of the Gln of the entry; C112 is already in the entry; SARAH domain of human Mst1; VL domain (kappa) of PMab-1; as the VL of m1 (PDB 6lz4, VL-SARAH chain); SARAH domain of human Mst1 with S37C; as in the VL-SARAH chain of m1 (PDB 6lz4), which already holds the Cys; Parent of m1, without …) VH: QIQLQQSGTVLVKPASSVKISCKASGYSFTSHYMHWIRQQPGNGLEWIGWISPENGNTKYNQKFDGKATLTADKSSSIAYMQLSSLTSEDSAVYFCVSWEDWSAYWGQGTLVTVCS VL: DIVLTQSPALTVSLGQRATISCKTNQNVDYYGNSYVHWYQQKPGQKPKLLIYLASNLASGIPARFSGRGSGTDFTLTIDPVEAADTATYYCQQSRDLPNTFGAGTKLELK	binds	–	–	–
PMab-1, rat anti-MAP monoclonal antibody (IgG2a, kappa) (antibody, V domains shown, VH of PMab-1; as the VH of m1 (PDB 6lz4, VH-SARAH chain) but with Asn43, Asn54 and Ser112 of the parent antibody; constant region of rat IgG2a heavy chain; VL of PMab-1; as the VL of m1 (PDB 6lz4, VL-SARAH chain); constant region of rat kappa light chain; Whole antibody; immobilised on Sepharose for pull-downs, used at 1.0 ug/ml in flow cytometry; copies: 2 + 2) VH: QIQLQQSGTVLVKPASSVKISCKASGYSFTSHYMHWIRQQPGNGLEWIGWISPENGNTKYNQKFDGKATLTADKSSSIAYMQLSSLTSEDSAVYFCVSWEDWSAYWGQGTLVTVSS VL: DIVLTQSPALTVSLGQRATISCKTNQNVDYYGNSYVHWYQQKPGQKPKLLIYLASNLASGIPARFSGRGSGTDFTLTIDPVEAADTATYYCQQSRDLPNTFGAGTKLELK	–	binds	binds	binds
